# Test results: publication PMC4445678 (Structure (London, England : 1993), 2010)
# Like-named read-outs stand apart in the source and are kept apart here.
# Legend:
# CBX7 cbox (Homo sapiens) = CBX7 cbox (Homo sapiens) (UniProt O95931); details: cited from earlier work
# C-RING1B 223–333 N306D [1] = biological target: T1, C-RING1B 223–333 N306D (human, UniProt Q99496 223-333, N306D); assay: crystal structure
# T1 sequence (looked up): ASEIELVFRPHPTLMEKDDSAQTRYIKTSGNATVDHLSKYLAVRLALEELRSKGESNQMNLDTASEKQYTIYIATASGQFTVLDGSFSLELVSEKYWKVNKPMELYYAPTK
# [2] = biological target: T2, C-RING1B (C-terminal domain of RING1B), wild-type (human, UniProt Q99496 222-336); assay: AUC
# T2 sequence (looked up): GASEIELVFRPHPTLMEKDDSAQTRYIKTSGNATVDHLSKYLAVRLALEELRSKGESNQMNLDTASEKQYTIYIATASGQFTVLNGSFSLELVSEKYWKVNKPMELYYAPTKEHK
# [3] = biological target: T2, C-RING1B (C-terminal domain of RING1B), …; assay: SPR
# C-RING1B 223–333 N306D [4] = biological target: T1, C-RING1B 223–333 N306D; assay: crystal structure; remark: listed apart in the source
molecule,measurement,setting,value
RING1B C-RING1B (from UniProt Q99496),Kd,CBX7 cbox (Homo sapiens),9.2 nM
"EVTVTDITANSITVTFREAQAAEGFFRDRS (domain or fragment, human, UniProt O95931 219-248, looked up) [cbx7 219–248]",binding result,C-RING1B 223–333 N306D [1],binds
"RYBP 145–198 (domain or fragment, human, UniProt Q8N488 145-198, looked up) RPRLKNVDRSTAQQLAVTVGNVTVIITDFKEKTRSSSTSSSTVTSSAGSEQQNQ",stoichiometry N,[2],1
"MBP-RYBP 145–198 (domain or fragment, human, UniProt Q8N488 145-198, looked up) RPRLKNVDRSTAQQLAVTVGNVTVIITDFKEKTRSSSTSSSTVTSSAGSEQQNQ",Kd,[3],100 nM
"RPRLKNVDRSTAQQLAVTVGNVTVIITDFKEKTRS (domain or fragment, human, UniProt Q8N488 145-179, looked up) [MBP-RYBP 145–179]",Kd,[3],90 nM
"RPRLKNVDRSTAQQLAVTVGNVTVIITDFKEKTRS (domain or fragment, human, UniProt Q8N488 145-179, looked up) [RYBP 145–179]",binding result,C-RING1B 223–333 N306D [4],binds
